Results from patent US20250237641A1 (priority 2021, published 2025).

B1: IFN-γ: cytokine interferon gamma, used to induce APOL1 expression (protein, UniProt P01579 24-161, looked up)
Interferon gamma: QDPYVKEAENLKKYFNAGHSDVADNGTLFLGILKNWKEESDRKIMQSQIVSFYFKLFKNFKDDQSIQKSVETIKEDMNVKFFNSNKKKRDDFEKLTNYSVTDLNVQRKAIHELIQVMAELSPAAKTGKRKRSQMLFRG

How the values were obtained:
COVID-19 patients = conditions: cited from earlier work
SARS-CoV-2 = assay: Plaque assay of supernatants from SARS-CoV-2 infected kidney organoids treated with remdesivir; type: cell-based; conditions: 2 μM remdesivir immediately after infection with SARS-CoV-2 or SARS-CoV-2-mNG; vs untreated organoids
Procedure: Mean±SEM of three independent experiments. Paired t-test, **p<0.01.
To investigate the efficacy of remdesivir, kidney organoids were infected with SARS-CoV-2 or SARS-CoV-2-mNG, and then treated with a 2 μM dose of remdesivir immediately after infection (FIG. 5A).

kidney organoids = conditions: short term, at the efficacious dose (2 μM)
[1] = test system: kidney organoid podocytes; assay: Time-lapse imaging of GFP-PODXL kidney organoids under prolonged treatment (podocyte integrity, organoid size); type: cell-based, human
Procedure: It was determined whether podocytes are damaged by prolonged IFN-γ treatment. As shown at FIG. 24A, an example time course for prolonged IFN-γ treatment involves regular imaging of organoids during treatment of mature organoids with IFN-γ prior to fixation. […] Further, podocyte junctional tracks appear intact with 7d IFN-γ treatment (results from confocal immunofluorescence microscopy of control versus 7d IFN-γ treatment; markers: ZO-1, Synaptopodin, ZO-1+Synaptopodin, APOL1, and DAPI). Based on these observations, it was concluded that podocytes appear largely undamaged by prolonged IFN-γ treatment.

[2] = test system: kidney organoid endothelial networks; assay: Endothelial networks and tubular structures of kidney organoids under prolonged IFN-γ treatment; type: cell-based, human; conditions: prolonged (7d) treatment
Text: As such, it was next determined whether JAK ½ inhibition prevents IFN-γ-induced loss of endothelial networks and disorganization of tubular structures. […] As a result, it was concluded that JAK ½ inhibition prevents IFN-γ-induced loss of endothelial networks and disorganization of tubular structures.

APOL1 expression = APOL1 expression in kidney organoids on agonist (IFN-γ) treatment, immunofluorescence; type: cell-based, human
Procedure: Experiments were performed to determine APOL1 localization in normal human kidney and stimulation in kidney organoids.

[3] = prolonged treatment of mature organoids

| Molecule | tolerability (COVID-19 patients; AKI and CKD patients) | risk of developing AKI (COVID-19 patients; remdesivir-treated patients) | reduced replicated virus in supernatants (plaque assay) (SARS-CoV-2) | safety in kidney cells (kidney organoids) | organoid size [1, 3] | effect on endothelial networks and tubular structures [2] | podocyte junctional tracks ([1]; 7d treatment, ZO-1, Synaptopodin staining) | loss of GFP-PODXL [1, 3] | APOL1 agonist screen result (APOL1 expression; 24-hour screen) | saturating dose for APOL1 expression (APOL1 expression; 24 hr, fluorescent intensity of APOL1 in organoids) [ng/mL] | APOL1 expression on titration (APOL1 expression; IFN-γ titration) |
| --- | --- | --- | --- | --- | --- | --- | --- | --- | --- | --- | --- |
| CCC(CC)COC(=O)[C@H](C)N[P@](=O)(OC[C@H]1O[C@@](C#N)(c2ccc3c(N)ncnn23)[C@H](O)[C@@H]1O)Oc1ccccc1 [remdesivir] | tolerated well | increase chances of developing AKI | 71.4%±18% | supports short term safety |  |  |  |  |  |  |  |
| tunicamycin [reference compound] |  |  |  |  | shrink in size |  |  |  |  |  |  |
| B1 |  |  |  |  | no significant change | pronounced loss of endothelial networks and tubular structures | appear intact | does not result in enhanced loss of GFP-PODXL | strong agonist for APOL1 expression | 100 | dose-responsive activation of APOL1 expression |
